This passage reports Inhibitory concentration (lowest concentration giving complete inhibition) of hemagglutination of trypsinized human A erythrocytes by PAA, Inhibitory concentration (lowest concentration giving complete inhibition) of hemagglutination of trypsinized human O erythrocytes by PAA and stoichiometry N results from PMC6259754.

In general, stoichiometry N refers to a count of units in the complex or per binding partner.

Several values for one entry are separate records, joined by “and”; a condition that tells them apart may be missing. Equal entries are not always repeated.

Assay [1] deals with Phaseolus acutifolius agglutinin (lectin from white tepary bean, Phaseolus acutifolius variety latifolius) (Phaseolus acutifolius).
The target is the same in assay [2]. The assay is described as follows: SEC. (In general: SEC sorts molecules by how far they enter the pores of the column.)
The target is the same in assay [3]. The assay is described as follows: native gel or EMSA. (In EMSA bound probe runs differently from free probe, usually more slowly.)
Assay [4] shares this target. In words: SEC; TSK 3000 SW HPLC column in PBS, 0.5 mL/min, 0.1 mg pure lectin; data not shown.

In assay [1], “Ovoalbumin (from UniProt P01012 1-386) (natural protein)” returned an Inhibitory concentration (lowest concentration giving complete inhibition) of hemagglutination of trypsinized human A erythrocytes by PAA of 1.3 mg/mL and an Inhibitory concentration (lowest concentration giving complete inhibition) of hemagglutination of trypsinized human O erythrocytes by PAA of 1.3 mg/mL.
In the case of “Phaseolus acutifolius agglutinin (lectin from white tepary bean, Phaseolus acutifolius variety latifolius) (natural protein)”, the stoichiometry N in assay [2] is 4 and 2; in assay [3], more than 4; in assay [4], 2.
For “Porcine thyroglobulin (from UniProt F1RRV3 20-2692) (natural protein)”, in assay [1], the Inhibitory concentration (lowest concentration giving complete inhibition) of hemagglutination of trypsinized human A erythrocytes by PAA is 0.0048 mg/mL and the Inhibitory concentration (lowest concentration giving complete inhibition) of hemagglutination of trypsinized human O erythrocytes by PAA was determined as 0.0048 mg/mL.
In assay [1], “Recombinant soluble human β-1,6-N-acetylglucosaminyltransferase V (from UniProt Q09328 1-741) (enzyme)” came in with an Inhibitory concentration (lowest concentration giving complete inhibition) of hemagglutination of trypsinized human A erythrocytes by PAA of 0.0273 mg/mL and an Inhibitory concentration (lowest concentration giving complete inhibition) of hemagglutination of trypsinized human O erythrocytes by PAA of 0.0017 mg/mL.

B1: Bovine fibrinogen (complex)
chain 1: GPRLVERQQSACKETGWPFCSDEDWNTKCPSGCRMKGLIDEVDQDFTSRINKLRDSLFNYQKNSKDSNTLTKNIVELMRGDFAKANNNDNTFKQISEDLRSRIEILRRKVIEQVQRIKVLQKNVRDQLVDMKRLEVDIDIKIRSCKGSCSRALEHKVDLEDYKNQQKQLEQVIAINLLPSRDIQYLPLIKMSTITGPVPREFKSQLQEAPLEWKALLEMQQTKMVLETFGGDGHARGDSVSQGTGLAPGSPRKPGTSSIGNVNPGSYGPGSSGTWNPGRPEPGSAGTWNPGRPEPGSAGTWNPGRPEPGSAGTWNPGRPEPGSAGTWNPGRPEPGSAGTWNTGSSGSSSFRPDSSGHGNIRPSSPDWGTFREEGSVSSGTKQEFHTGKLVTTKGDKELLIDNEKVTSGHTTTTRRSCSKVITKTVTNADGRTETTKEVVKSEDGSDCGDADFDWHHTFPSRGNLDDFFHRDKDDFFTRSSHEFDGRTGLAPEFAALGESGSSSSKTSTHSKQFVSSSTTVNRGGSAIESKHFKMEDEAESLEDLGFKGAHGTQKGHTKARPARGIHTSPLGEPSLTP
chain 2: GHRPYDKKKEEAPSLRPVPPPISGGGYRARPATATVGQKKVERKPPDADGCLHADPDLGVLCPTGCKLQDTLVRQERPIRKSIEDLRNTVDSVSRTSSSTFQYITLLKNMWKGRQNQVQDNENVVNEYSSHLEKHQLYIDETVKNNIPTKLRVLRSILENLRSKIQKLESDVSTQMEYCRTPCTVTCNIPVVSGKECEKIIRNEGETSEMYLIQPEDSSKPYRVYCDMKTEKGGWTVIQNRQDGSVDFGRKWDPYKQGFGNIATNAEGKKYCGVPGEYWLGNDRISQLTNMGPTKLLIEMEDWKGDKVTALYEGFTVQNEANKYQLSVSKYKGTAGNALIEGASQLVGENRTMTIHNSMFFSTYDRDNDGWKTTDPRKQCSKEDGGGWWYNRCHAANPNGRYYWGGAYTWDMAKHGTDDGVVWMNWQGSWYSMKKMSMKIRPYFPEQ
chain 3: YVATRDNCCILDERFGSYCPTTCGIADFLNNYQTSVDKDLRTLEGILYQVENKTSEARELVKAIQISYNPDQPSKPNNIESATKNSKSMMEEIMKYETLISTHESTIRFLQEVYNSNSQKIVNLRDKVVQLEANCQEPCQDTVKIHDVTGRDCQDVANKGAKESGLYFIRPLKAKQFLVYCEIDGSGNGWTVFQKRLDGSLDFKKNWIQYKEGFGHLSPTGTGNTEFWLGNEKIHLISTQSSIPYVLRIQLEDWNGRTSTADYASFKVTGENDKYRLTYAYFIGGDAGDAFDGYDFGDDSSDKFFTSHNGMQFSTWDSDNDKYDGNCAEQVGIGWWMNKCHAGHLNGVYYQGGTYSKTSTPNGYDNGIIWATWKSRWYSMKKTTMKIIPLNRLAIGEGQQHQLGGAKQVGVEHHVEIEYD
In assay [1], B1 displayed an Inhibitory concentration (lowest concentration giving complete inhibition) of hemagglutination of trypsinized human A erythrocytes by PAA of 0.0391 mg/mL and an Inhibitory concentration (lowest concentration giving complete inhibition) of hemagglutination of trypsinized human O erythrocytes by PAA of 0.0098 mg/mL.

B2: Bovine fetuin (natural protein)
chain: IPLDPVAGYKEPACDDPDTEQAALAAVDYINKHLPRGYKHTLNQIDSVKVWPRRPTGEVYDIEIDTLETTCHVLDPTPLANCSVRQQTQHAVEGDCDIHVLKQDGQFSVLFTKCDSSPDSAEDVRKLCPDCPLLAPLNDSRVVHAVEVALATFNAESNGSYLQLVEISRAQFVPLPVSVSVEFAVAATDCIAKEVVDPTKCNLLAEKQYGFCKGSVIQKALGGEDVRVTCTLFQTQPVIPQPQPDGAEAEAPSAVPDAAGPTPSAAGPPVASVVVGPSVVAVPLPLHRAHYDLRHTFSGVASVESSSGEAFHVGKTPIVGQPSIPGGPVRLCPGRIRYFKI
modifications: glycoprotein with N-linked biantennary and triantennary complex oligosaccharides (sites not given)
Turning to B2, in assay [1], the Inhibitory concentration (lowest concentration giving complete inhibition) of hemagglutination of trypsinized human A erythrocytes by PAA came to 0.156 mg/mL and the Inhibitory concentration (lowest concentration giving complete inhibition) of hemagglutination of trypsinized human O erythrocytes by PAA was 0.0781 mg/mL.
